# Article PMC10010549
# Positions count from the first letter of the chain named.
# Tests used:
# Assay in all cases: EMSA
# Details in all cases: pH 7.5, 30 min at 37 C
# [1] = biological target: T1, GntR (Streptococcus suis serotype 2 ZY05719) (UniProt A0A0H3MTN4)
# T1 sequence: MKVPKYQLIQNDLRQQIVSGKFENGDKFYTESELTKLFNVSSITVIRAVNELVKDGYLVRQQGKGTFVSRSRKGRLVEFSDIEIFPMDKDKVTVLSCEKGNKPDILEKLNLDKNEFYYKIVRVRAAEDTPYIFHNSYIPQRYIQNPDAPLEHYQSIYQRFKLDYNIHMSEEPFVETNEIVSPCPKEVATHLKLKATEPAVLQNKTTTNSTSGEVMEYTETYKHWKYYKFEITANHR
# [2] = biological target: T2, GntR-S41A S41A (Streptococcus suis serotype 2 ZY05719) (UniProt A0A0H3MTN4)
# T2 sequence: T1 sequence with S41A
# [3] = biological target: T3, GntR-S41E S41E (Streptococcus suis serotype 2 ZY05719) (UniProt A0A0H3MTN4)
# T3 sequence: T1 sequence with S41E
sequence,measurement,setting,value
GCCATAATGTAAAATCTCACTTTCGAAAATATATTTTTTTACGAACTATATTATACAATATAAATGTTACCGATTTCAAAAAATATGCTCAGAATATCACATTTTTTTCAAAAAGTTTTTGAAATGCTATTTTCTTTAAACAATGTAAAGATATATAAAAGCAAAAACCTAGATTTCTCTAGGTTTCTCTTAACGTACTTGTTCAAAACGC (double strand) [nox promoter],binding,[1],binds
same,binding,[2],binds
same,binding,[3],no binding
